How the values were obtained:
[1] = target: Ag85 (antigen 85 complex proteins) on the surface of live Mycobacterium abscessus cells (M. abscessus (endogenous in CIP104536T cells)); assay: single-cell force spectroscopy (AFM); single M. abscessus R cell on a polydopamine colloidal probe against Fn coupled to a gold surface; PBS; maximum force 250 pN, contact time 500 ms, approach and retraction 1 um/s
[2] = target: Ag85 (antigen 85 complex proteins) on the surface of live Mycobacterium abscessus cells (M. abscessus (endogenous in CIP104536T cells)); assay: dynamic force spectroscopy (AFM single-molecule force spectroscopy at varied loading rate); Fn tip on live M. abscessus R cells; retraction speeds 0.5, 1, 2.5, 5 and 10 um/s; loading rates 100 to 100,000 pN/s; 13 cells; fit of the Friddle-Noy-de Yoreo model; Kd calculated from Feq and keff (7 pN/nm)
[3] = target: Ag85 (antigen 85 complex proteins) on the surface of live Mycobacterium abscessus cells (M. abscessus (endogenous in CIP104536T cells)); assay: single-molecule force spectroscopy (AFM); Fn-functionalized gold-coated AFM tip on live M. abscessus R cells adhered to a hydrophobic Petri dish; PBS; maximum force 250 pN, contact time 500 ms, retraction 1 um/s

Substance: purified human plasma fibronectin (natural protein)
- adhesion force [1]: 77 pN
- adhesion frequency (fraction of adhesive force curves), without peptide [1]: 30%
- Kd [2]: 95 nM
- equilibrium force (Feq) [2]: 34 pN
- koff [2]: 33 s⁻¹
- adhesion (rupture) force [3]: 75 pN
- adhesion frequency (fraction of adhesive force curves), without peptide [3]: 30%

— PMC7140604
